US7132278B2, “PAS kinase” (Board of Regents, The University of Texas System, priority 2001, dated 2006)

Substrate: Nc1ncnc2c1ncn2[C@@H]1O[C@H](COP(=O)(O)OP(=O)(O)OP(=O)(O)O)[C@@H](O)[C@H]1O
Test: PASK kinase activity (phosphorylation of AMARA peptide), ATP kinetics
Type: biochemical, human
Details: other: HTS kinase assay, AMARA peptide substrate, Tris-HCl pH 7.5, 10 mM MgCl2, room temperature
Description: Biochemical properties of the Pask enzyme. A recombinant baculovirus was engineered to overexpress human PASK enzyme in cultured insect cells. The enzyme was expressed as a fusion with a His6 tag at its amino terminus such that the recombinant polypeptide could be purified by Ni-affinity chromatography. Routine enzyme preparations were harvested from 0.8 liter of cultured Sf-9 cells. Cells were lysed by dounce homogenization in 50 mM Tris-HCl, pH 8.0, 100 mM NaCl, 0.04% β-mercaptoethanol (“lysis buffer”) and spun at 100,000×G for one hour to remove insoluble debris. Soluble material (˜50 ml) was then applied to a 3 ml bed volume of Ni-affinity resin. Following application and 50× column volume wash, bound material was eluted with storage buffer (50 mM HEPES, pH 7.4, 100 mM NaCl, 1 mM DTT, 1 mM EDTA) supplemented with 250 mM imidazole. Eluted material was sequentially subjected to Mono-Q, anion-exchange chromatography, and eluted with increasing NaCl concentration. Fractions were evaluated by SDS-PAGE to identify PASK enriched fractions, pooled and dialyzed against storage buffer supplemented with 10% glycerol. Typical enzyme preparations yield 0.5 mg of intact PASK enzyme judged to be greater than 95% pure by visual inspection of Coomassie-stained SDS-PAGE gels.

B1: human PASK (PAS-kinase), wild type, SEQ ID NO:2 (Homo sapiens) (protein)
chain: MEDGGLTAFEEDQRCLSQSLPLPVSAEGPAAQTTAEPSRSFSSAHRHLSRRNGLSRLCQSRTALSEDRWSSYCLSSLAAQNICTSKLHCPAAPEHTDPSEPRGSVSCCSLLRGLSSGWSSPLLPAPVCNPNKAIFTVDAKTTEILVANDKACGLLGYSSQDLIGQKLTQFFLRSDSDVVEALSEEHMEADGHAAVVFGTVVDIISRSGEKIPVSVWMKRMRQERRLCCVVVLEPVERVSTWVAFQSDGTVTSCDSLFAHLHGYVSGEDVAGQHITDLIPSVQLPPSGQHIPKNLKIQRSVGRARDGTTFPLSLKLKSQPSSEEATTGEAAPVSGYRASVWVFCTISGLITLLPDGTIHGINHSFALTLFGYGKTELLGKNITFLIPGFYSYMDLAYNSSLQLPDLASCLDVGNESGCGERTLDPWQGQDPAEGGQDPRINVVLAGGHVVPRDEIRKLMESQDIFTGTQTELIAGGQLLSCLSPQPAPGVDNVPEGSLPVHGEQALPKDQQITALGREEPVAIESPGQDLLGESRSEPVDVKPFASCEDSEAPVPAEDGGSDAGMCGLCQKAQLERMGVSGPSGSDLWAGAAVAKPQAKGQLAGGSLLMHCPCYGSEWGLWWRSQDLAPSPSGMAGLSFGTPTLDEPWLGVENDREELQTCLIKEQLSQLSLAGALDVPHAELVPTECQAVTAPVSSCDLGGRDLCGGCTGSSSACYALATDLPGGLEAVEAQEVDVNSFSWNLKELFFSDQTDQTSSNCSCATSELRETPSSLAVGSDPDVGSLQEQGSCVLDDRELLLLTGTCVDLGQGRRFRESCVGHDPTEPLEVCLVSSEHYAASDRESPGHVPSTLDAGPEDTCPSAEEPRLNVQVTSTPVIVMRGAAGLQREIQEGAYSGSCHHRDGLRLSIQFEVRRVELQGPTPLFCCWLVKDLLHSQRDSAARTRLFLASLPGSTHSTAAELTGPSLVEVLRARPWFEEPPKAVELEGLAACEGEYSQKYSTMSPLGSGAFGFVWTAVDKEKNKEVVVKFIKKEKVLEDCWIEDPKLGKVTLEIAILSRVEHANIIKVLDIFENQGFFQLVMEKHGSGLDLFAFIDRHPRLDEPLASYIFRQLVSAVGYLRLKDIIHRDIKDENIVIAEDFTIKLIDFGSAAYLERGKLFYTFCGTIEYCAPEVLMGNPYRGPELEMWSLGVTLYTLVFEENPFCELEETVEAAIHPPYLVSKELMSLVSGLLQPVPERRTTLEKLVTDPWVTQPVNLADYTWEEVCRVNKPESGVLSAASLEMGNRSLSDVAQAQELCGGPVPGEAPNGQGCLHPGDPRLLTS
  Km: 2500 µM
